Experimental data taken from patent US20090123474A1, “COMBINATION OF ANGIOPOIETIN-2 ANTAGONIST AND OF VEGF-A, KDR AND/OR FLTL ANTAGONIST FOR TREATING CANCER” (ASTRAZENECA AB, priority 2005, published 2009).

Assays:
[1] = target: T1, Angiopoietin-1 (Homo sapiens, UniProt Q15389); test: Biacore (SPR) medium resolution screen of mAb binding to Angiopoietin-1
T1 construct: purchased R&D Systems 293-AN-025/CF
T1 sequence (Q15389 16-498): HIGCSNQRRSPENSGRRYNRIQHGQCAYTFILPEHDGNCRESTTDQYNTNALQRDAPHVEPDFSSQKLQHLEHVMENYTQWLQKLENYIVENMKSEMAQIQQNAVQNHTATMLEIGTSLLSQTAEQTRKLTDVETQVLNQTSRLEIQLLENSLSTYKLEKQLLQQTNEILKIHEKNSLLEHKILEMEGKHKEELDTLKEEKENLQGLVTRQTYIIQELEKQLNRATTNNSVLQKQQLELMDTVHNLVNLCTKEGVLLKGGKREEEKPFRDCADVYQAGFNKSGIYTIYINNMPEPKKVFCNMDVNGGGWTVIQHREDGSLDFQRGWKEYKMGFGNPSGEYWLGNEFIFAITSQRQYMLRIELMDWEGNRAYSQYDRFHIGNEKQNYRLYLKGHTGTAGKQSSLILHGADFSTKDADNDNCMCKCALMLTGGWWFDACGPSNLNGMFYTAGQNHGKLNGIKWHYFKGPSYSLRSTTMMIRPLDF
Description: The cross-reactivity of the antibody to Angiopoietin-1 was further investigated by measuring the affinity of the mAbs to Angiopoietin-1. Instead of immobilizing Angiopoietin-1, as described in ELISA-based counter-binding, the mAbs were immobilized to the CM5 Biacore chips, and Angiopoietin-1 in solution was injected for the determination of the on-rate and off-rate. Six mAbs; 3.3.2, 3.31.2, 5.16.3, 5.86.1, 5.88.3 and 3.19.3 were tested.
Label-free surface plasmon resonance (SPR), or Biacore 2000 instrumentation, was utilized to measure antibody affinity to Angiopoietin-1. For this purpose, a high-density goat α-human antibody surface over a CM5 Biacore chip was prepared using routine amine coupling. For developmental experiments, purified mAbs (clones 3.3.2, 3.31.2, 5.16.3, 5.86.1, 5.88.3 and 3.19.3) were diluted to approximately 2.5-3.5 μg/ml in HBS-P running buffer containing 100 μg/ml BSA. The capture level for each mAb was approximately 150 RU. A 5-minute wash followed each capture cycle to stabilize the mAb baseline. A single Angiopoietin-1 sample diluted to 87.4 nM in the running buffer was injected for one minute over all capture surfaces. […] This experiment was repeated by increasing the mAb capture levels to well over 500-600 RU and injecting 380 nM Angiopoietin-1 for one minute. Angiopoietin-1 was again found to bind mAb 3.19.3.

[2] = system: human HT29 colon tumour xenografts; test: HT29 xenograft efficacy study; type: in vivo; details: AZD2171 1.5 mg/kg/day p.o. d 0-27, 3.19.3 10 mg/kg i.p. day 0, 3, 7, 10, 14, 17, 21 and 24
Description: The efficacy of mAb 3.19.3 in combination with AZD2171 was evaluated in human HT29 xenografts. Briefly, 5×10^6 HT29 tumour cells in 0.1 ml of serum free Roswell Park Memorial Institute (RPMI)-1640 medium were injected subcutaneously into the flanks of 60 athymic (nu/nu genotype) mice. When tumours reached a volume of 200 to 400 mm^3 (9-10 days), mice were randomized into groups (8 per group) and treatment started (day 0).
The control group (Group 1) received a daily oral (p.o.) administration of vehicle only for 28 consecutive days (day 0-27). Group 2 treatment consisted of a daily p.o. administration of AZD2171 alone at 1.5 mg/kg/administration for 28 consecutive days (day 0-27). AZD2171 was prepared as a suspension in 1% polysorbate 80 (i.e. a 1% (v/v) solution of polyoxyethylene (20) sorbitan mono-oleate in deionised water). […]
Tumour volumes (mm^3) were assessed at least twice weekly by bilateral Vernier caliper measurement and, taking length to be the longest diameter across the tumor and width the corresponding perpendicular, calculated using the formula (π/6)×(length×width)×√ (length×width). Growth inhibition from the start of treatment was assessed by comparison of the differences in tumor volume between control and treated groups. […] For all mice, the tumours were excised and weights recorded upon termination of the study.

[3] = system: human LoVo colon tumour xenografts; type: in vivo; details: 3.19.3 10 mg/kg 2×wk i.p., Zactima 50 mg/kg/day p.o.
Description: The anti-tumor activity of monoclonal antibody 3.19.3 was evaluated in the LoVo xenograft model of colorectal cancer. Briefly, LoVo cells were cultured in flasks as routine until the cells reached sub-confluence. Immunodeficient 8 week old male NCr nude mice were used. Cell suspensions containing 3×10^6 cells were injected subcutaneously into the right flank of the mice, and after the tumour volume reached 200 mm^3, the mice were randomized in groups and the treatments were initiated. mAb 3.19.3 10 mg/kg in saline was injected intraperitoneally, twice per week for 2 weeks. Zactima™ was treated peroral daily at doses ranging from 25 to 50 mg/kg in water containing 1% Tween80. The dimensions of each tumor were measured twice per week. The volume of the tumor was calculated as: Volume=Length×(Width)^2×0.5 (cm^3).

[4] = system: human SW620 colon tumour xenografts; test: SW620 xenograft efficacy study; type: in vivo; details: 3.19.3 10 mg/kg 2×wk i.p., DC101 15 mg/kg 2×wk i.p., 3 weeks
Description: The anti-tumor activity of mAb 3.19.3 was evaluated in combination with monoclonal antibody DC101 which is directed against VEGFR-2/KDR, in the SW620 colorectal cancer xenograft model. Briefly, SW620 cells were cultured under routine tissue culture conditions in flasks until the cells reached sub-confluence. Immunodeficient 8-10 week old NCr nude mice were used, and cell suspensions containing approximately 1×10^6 cells were injected subcutaneously into the right flank of the mice. After the tumour volumes reached 100 mm^3, the mice were randomized in groups and the treatments were initiated. The mAb 3.19.3 10 mg/kg in saline was injected intraperitoneally, twice per week for 3 weeks. The mAb DC101 15 mg/kg in saline was also injected intraperitoneally, following the same schedule of twice per week for 3 weeks. The dimensions of each tumor were measured twice per week. The volume of the tumor was calculated as: Volume=Length×(Width)^2×0.5 (cm^3).

B1: mAb 3.19.3: fully human anti-Angiopoietin-2 monoclonal antibody, variable regions SEQ ID NO: 5-8; also binds Angiopoietin-1 (antibody, V domains shown)
VH: QVQLVESGGGVVQPGRSLRLSCAASGFTFTNYGMHWGRQAPGKGLEWVAVISHDGNNKYYVDSVKGRFTISRDNSKNTLYLQMNSLRAEDTAVYYCAREGIDFWSGLNWFDPWGQGTLVTVSSA
VL: EIVLTQSPGTLSLSPGERATLSCRASQSITGSYLAWYQQKPGQAPRLLICGASSWATGIPDRFSGSGSGTDFTLTISRLEPEDFAVYYCQQYSSSPITFGQGTRLEIKR
For B1, the “binding of Angiopoietin-1 to captured mAb” value ([1]; 87.4 nM Angiopoietin-1, capture level approximately 150 RU) was “found to bind”, the “binding of Angiopoietin-1 to captured mAb” value ([1]; 380 nM Angiopoietin-1, capture levels over 500-600 RU) was “found to bind” and the “Inhibition of Control Tumour Growth Day 28” value [2] was 40%. For the same molecule, the tumour inhibition [3] was 48% and the tumour inhibition [4] was 48%.
